Target: Polθ helicase domain (amino acids 1–894), O75417
Assay: SEC; calibrated size exclusion chromatography of purified Polθ-h
Details: remark: other sources report otherwise

B1: Polθ helicase domain (amino acids 1–894), O75417 1-894 (domain or fragment)
chain: MNLLRRSGKRRRSESGSDSFSGSGGDSSASPQFLSGSVLSPPPGLGRCLKAAAAGECKPTVPDYERDKLLLANWGLPKAVLEKYHSFGVKKMFEWQAECLLLGQVLEGKNLVYSAPTSAGKTLVAELLILKRVLEMRKKALFILPFVSVAKEKKYYLQSLFQEVGIKVDGYMGSTSPSRHFSSLDIAVCTIERANGLINRLIEENKMDLLGMVVVDELHMLGDSHRGYLLELLLTKICYITRKSASCQADLASSLSNAVQIVGMSATLPNLELVASWLNAELYHTDFRPVPLLESVKVGNSIYDSSMKLVREFEPMLQVKGDEDHVVSLCYETICDNHSVLLFCPSKKWCEKLADIIAREFYNLHHQAEGLVKPSECPPVILEQKELLEVMDQLRRLPSGLDSVLQKTVPWGVAFHHAGLTFEERDIIEGAFRQGLIRVLAATSTLSSGVNLPARRVIIRTPIFGGRPLDILTYKQMVGRAGRKGVDTVGESILICKNSEKSKGIALLQGSLKPVRSCLQRREGEEVTGSMIRAILEIIVGGVASTSQDMHTYAACTFLAASMKEGKQGIQRNQESVQLGAIEACVMWLLENEFIQSTEASDGTEGKVYHPTHLGSATLSSSLSPADTLDIFADLQRAMKGFVLENDLHILYLVTPMFEDWTTIDWYRFFCLWEKLPTSMKRVAELVGVEEGFLARCVKGKVVARTERQHRQMAIHKRFFTSLVLLDLISEVPLREINQKYGCNRGQIQSLQQSAAVYAGMITVFSNRLGWHNMELLLSQFQKRLTFGIQRELCDLVRVSLLNAQRARVLYASGFHTVADLARANIVEVEVILKNAVPFKSARKAVDEEEEAVEERRNMRTIWVTGRKGLTEREAAALIVEEARMILQQDLVEM
B1 was tested. Which stoichiometry N did it give?
Its stoichiometry N is 4.

— article PMC9023281
